± gives the standard deviation of the averaged measurements.
Test system: ATP
Assay: switch fluorescence ratio, 500 uM ATP over buffer (Cy3 cluster intensity, sum of 5 cycles each) (fold (ratio)); higher = stronger signal-on switching upon ATP binding; sequences stand for … in TCGTCGGCAGCGTCAGATGTGTATAAGAGACAGTTTTTTTTTTTTTTTTTTTTTTTTT…TC
Details: aptamer strand: ATP DNA aptamer (quencher-CACCTGGGGGAGTATTGCGGAGGAAGG + anchor), 100 nM annealed; ATP concentration: 500 uM
Procedure, shortened: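 After annealing to 100 nM quencher-labelled ATP aptamer, Cy3-labelled switching-strand clusters on a modified Illumina MiSeq flow-cell were imaged in selection buffer. A second image followed after 15 min with 500 uM ATP at 22 °C, and five such buffer/ATP cycles were done, each separated by NaOH stripping and re-annealing. The fluorescence ratio, averaged per switch-domain sequence, is summed target-cycle over summed buffer-cycle Cy3 intensity per cluster, with clusters outside 100-1000 RFU excluded.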
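Note: ATP exposure 15 min at 22 °C before imaging.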

Row | Sequence | switch fluorescence ratio
1 | CGCTGATGGG | 1.01 ± 0.071
2 | CGCTGCACAT | 2.21 ± 0.045
3 | CGCTGGCCTT | 0.975 ± 0.016
4 | CGCTGGGATT | 0.9913 ± 0.0057
5 | CGCTGTACAG | 0.96028 ± 0.00038
6 | CGCTGTAGGT | 1.02 ± 0.0058
7 | CGCTTACTTT | 1.24 ± 0.021
8 | CGCTTAGGGT | 1.05 ± 0.07
9 | CGCTTAGTGG | 1.03 ± 0.0027
10 | CGCTTTAGGT | 1.02 ± 0.012
11 | CGCTTTGTGT | 0.973 ± 0.032
12 | CGCTTTTCGT | 1.0023 ± 8e-05
13 | CGCTTTTGGA | 1 ± 0.036
14 | CGGAAAAAGG | 0.992 ± 0.034
15 | CGGAAAGACG | 1.05 ± 0.014
16 | CGGAACTGAA | 1.02 ± 0.072
17 | CGGAACTGGT | 1.04 ± 0.058
18 | CGGAAGGGGG | 1 ± 0.048
19 | CGGAAGGTAG | 0.962 ± 0.015
20 | CGGAATAGGG | 1.07 ± 0.052
21 | CGGAATGGGG | 1.02 ± 0.015
22 | CGGAATGTAT | 0.992 ± 0.04
23 | CGGAATTGGG | 0.9735 ± 0.0085

Row | Sequence | switch fluorescence ratio
24 | CGGACGAAAG | 1.02 ± 0.048
25 | CGGACGGGTT | 0.985 ± 0.019
26 | CGGACTAGGG | 1.04 ± 0.022
27 | CGGACTATAT | 1.07 ± 0.032
28 | CGGACTCGTG | 0.954 ± 0.021
29 | CGGACTGTCA | 1.02 ± 0.016
30 | CGGAGAATGG | 1.11 ± 0.13
31 | CGGAGACGGT | 0.9958 ± 0.0078
32 | CGGAGCAGTG | 1.75 ± 0.055
33 | CGGAGCGACG | 1.03 ± 0.015
34 | CGGAGGACAC | 1.09 ± 0.059
35 | CGGAGGAGGA | 0.993 ± 0.038
36 | CGGAGGGATG | 1.71 ± 0.66
37 | CGGAGGGGCG | 0.963 ± 0.06
38 | CGGAGGGGCT | 1.03 ± 0.015
39 | CGGAGGGGGG | 1.03 ± 0.062
40 | CGGAGGGTGG | 0.961 ± 0.041
41 | CGGAGTATAT | 1.87 ± 0.11
42 | CGGAGTTATC | 1.35 ± 0.2
43 | CGGAGTTGAA | 1.07 ± 0.027
44 | CGGATAGTCA | 1.042 ± 0.0078
45 | CGGATCGACT | 0.977 ± 0.02
46 | CGGATGAGGA | 0.984 ± 0.01

Row | Sequence | switch fluorescence ratio
47 | CGGATGATGA | 1.02 ± 0.089
48 | CGGATGGAAA | 0.964 ± 0.02
49 | CGGATGGCC | 0.965 ± 0.036
50 | CGGATTTATC | 1.01 ± 0.033
51 | CGGATTTCAG | 0.951 ± 0.03
52 | CGGCAAAGTA | 0.972 ± 0.065
53 | CGGCAGGCTC | 1.19 ± 0.053
54 | CGGCAGGTTT | 0.992 ± 0.016
55 | CGGCATGGTG | 0.98 ± 0.02
56 | CGGCCAGGAA | 1.05 ± 0.024
57 | CGGCCGGAGT | 0.983 ± 0.0086
58 | CGGCGATCGG | 0.99 ± 0.013
59 | CGGCGCACAG | 1.31 ± 0.051
60 | CGGCGCTGGA | 1.01 ± 0.055
61 | CGGCGGCCCT | 1.005 ± 0.0092
62 | CGGCGGGAGT | 1.019 ± 0.0073
63 | CGGCGGGGAG | 1 ± 0.044
64 | CGGCTAGAAG | 0.994 ± 0.038
65 | CGGCTAGGGG | 1.02 ± 0.037
66 | CGGCTAGTGC | 1.05 ± 0.042
67 | CGGCTCGTTT | 1.049 ± 0.0079
68 | CGGCTCTCTT | 1.009 ± 0.0017
69 | CGGCTGCGGG | 0.978 ± 0.022

Row | Sequence | switch fluorescence ratio
70 | CGGCTGGACG | 0.958 ± 0.047
71 | CGGCTGGCGG | 0.997 ± 0.026
72 | CGGCTGGGGA | 1.03 ± 0.017
73 | CGGCTGTTTT | 1.037 ± 0.0082
74 | CGGCTTTGCC | 0.999 ± 0.016
75 | CGGCTTTTTA | 0.9588 ± 0.0056
76 | CGGCTTTTTG | 0.991 ± 0.034
77 | CGGGAAAAAG | 1.08 ± 0.11
78 | CGGGAAAAGA | 1.58 ± 0.99
79 | CGGGAAAATA | 1.03 ± 0.014
80 | CGGGAAGGCT | 1.06 ± 0.13
81 | CGGGAAGGTA | 0.981 ± 0.016
82 | CGGGACAGCG | 1.01 ± 0.0058
83 | CGGGACAGTT | 1 ± 0.061
84 | CGGGACTCCG | 1.02 ± 0.0032
85 | CGGGACTTTT | 0.982 ± 0.044
86 | CGGGAGCCCA | 1.02 ± 0.044
87 | CGGGAGCGTT | 1.12 ± 0.18
88 | CGGGAGCTGG | 1.02 ± 0.023
89 | CGGGAGGAGG | 1 ± 0.028
90 | CGGGAGGCCT | 1.01 ± 0.062
91 | CGGGAGGGGT | 1.06 ± 0.14
92 | CGGGAGGGTG | 1.04 ± 0.038

Row | Sequence | switch fluorescence ratio
93 | CGGGAGGGTT | 1 ± 0.02
94 | CGGGAGTGCT | 0.994 ± 0.019
95 | CGGGATATGA | 1.03 ± 0.028
96 | CGGGATCGTC | 0.977 ± 0.024
97 | CGGGATGATC | 0.9966 ± 0.0069
98 | CGGGATGGTT | 0.97 ± 0.11
99 | CGGGATGTTA | 0.996 ± 0.016
100 | CGGGATTCGT | 1 ± 0.057
101 | CGGGATTTTT | 0.973 ± 0.054
102 | CGGGCATTAG | 1.209 ± 0.0071
103 | CGGGCCATAG | 1.03 ± 0.044
104 | CGGGCCGCGG | 1.06 ± 0.083
105 | CGGGCGCTGT | 1.06 ± 0.061
106 | CGGGCGGTGG | 0.9829 ± 0.0069
107 | CGGGCGTTGT | 1 ± 0.04
108 | CGGGCTGAGA | 1.045 ± 0.0048
109 | CGGGCTGCGT | 0.962 ± 0.028
110 | CGGGCTGGAG | 1.09 ± 0.079
111 | CGGGCTTGGC | 1.01 ± 0.0022
112 | CGGGCTTGGG | 0.968 ± 0.0031
113 | CGGGGAACTC | 1.06 ± 0.056
114 | CGGGGAAGAT | 0.981 ± 0.016
115 | CGGGGAAGGT | 1 ± 0.031

Row | Sequence | switch fluorescence ratio
116 | CGGGGAATTG | 1 ± 0.014
117 | CGGGGAGATC | 1.03 ± 0.062
118 | CGGGGAGGCT | 0.988 ± 0.047
119 | CGGGGAGGGT | 0.967 ± 0.015
120 | CGGGGAGGTA | 0.9803 ± 0.0049
121 | CGGGGAGTGG | 0.973 ± 0.032
122 | CGGGGATCCT | 1.05 ± 0.032
123 | CGGGGATCTA | 1 ± 0.018
124 | CGGGGATGTA | 0.972 ± 0.031
125 | CGGGGATTGG | 1 ± 0.042
126 | CGGGGCACCG | 0.9868 ± 0.0032
127 | CGGGGCACGC | 0.896 ± 0.05
128 | CGGGGCACTG | 0.997 ± 0.018
129 | CGGGGCAGCG | 1.02 ± 0.042
130 | CGGGGCCGTT | 1 ± 0.019
131 | CGGGGCGCGG | 0.977 ± 0.024
132 | CGGGGCGG | 0.952 ± 0.057
133 | CGGGGCGGGG | 0.985 ± 0.012
134 | CGGGGCTCCG | 0.967 ± 0.023
135 | CGGGGCTTAG | 1.0342 ± 0.00025
136 | CGGGGCTTGT | 0.985 ± 0.013
137 | CGGGGGACGT | 0.9794 ± 0.0085
138 | CGGGGGAGCC | 1.02 ± 0.025

Row | Sequence | switch fluorescence ratio
139 | CGGGGGAGGT | 0.989 ± 0.017
140 | CGGGGGCAGG | 1.03 ± 0.07
141 | CGGGGGCATA | 1 ± 0.029
142 | CGGGGGCGCG | 1.02 ± 0.021
143 | CGGGGGGAAG | 1.01 ± 0.029
144 | CGGGGGGCAG | 1.01 ± 0.024
145 | CGGGGGGCGC | 0.969 ± 0.014
146 | CGGGGGGGTC | 1 ± 0.036
147 | CGGGGGGGTT | 1.02 ± 0.034
148 | CGGGGGGTTA | 1.01 ± 0.033
149 | CGGGGGTCAA | 0.99 ± 0.011
150 | CGGGGGTCCA | 1.01 ± 0.055
151 | CGGGGGTCTA | 1.01 ± 0.045
152 | CGGGGGTGA | 1.014 ± 0.0059
153 | CGGGGGTGAG | 1.04 ± 0.13
154 | CGGGGGTGCT | 0.966 ± 0.044
155 | CGGGGGTTGC | 0.977 ± 0.042
156 | CGGGGTACCT | 1.01 ± 0.054
157 | CGGGGTACGC | 1 ± 0.076
